Experiments:
[1] = tested on: mouse CIA model (DBA1/J mice); experiment: Mouse collagen induced arthritis (CIA) model, therapeutic protocol; assay type: in vivo; settings: 10 mg/kg, 3x week, i.p., day 31 to day 46
Method: DBA1/J mice (male, 6-7 weeks old, approx 20 gram) were obtained from Centre d'Elevage Regional Janvier (Laval, France). Mice were kept on a 12 hr light/dark cycle (0700-1900). Temperature was maintained at 22° C., and food and water were provided ad libitum.
One day before the experiment, CII solution (2 mg/mL) was prepared with 0.05 M acetic acid and stored at 4° C. Just before the immunization, equal volumes of adjuvant […] and CII were mixed by a homogenizer in a pre-cooled glass bottle in an ice water bath. Extra adjuvant and prolonged homogenization may be required if an emulsion is not formed. 0.1 mL of the emulsion was injected intradermally at the base of the tail of each mouse on day 1, a second booster intradermal injection (CII solution at 2 mg/mL in […] 0.1 mLemulsion) was performed on day 21. This immunization method was modified from published methods (Brand et al, 2007, Collagen-induced arthritis. Nature Protocols; vol 2 (5): 1269-1275; Lin et al., 2007, Anti-rheumatic activities of histone deacetylase (HDAC) inhibitors in vivo in collagen-induced arthritis in rodents. Br J Pharmacol. April; 150 (7):829-31).
The therapeutic effects of the antibodies were tested in the mouse CIA model. Mice were randomly divided into equal groups and each group contained 10 mice. All mice were immunized on day 1 and boosted on day 21. Therapeutic dosing lasted from day 31 to day 46. The negative control group was treated with vehicle (PBS) and the positive control group with Enbrel (10 mg/kg, 3× week, i.p.). An antibody of interest was tested at 10 mg/kg, i.p. 3 times per week.
Anti-IL17C antibodies were administered i.p. three times a week at 10 mg/kg. […]
Arthritis was scored according to the method of Khachigian 2006 (Collagen antibody-induced arthritis. (2006) Nature Protocols 1, 2512-6), Lin et al 2007 (supra); Nishida et al. 2004 (Histone deacetylase inhibitor suppression of autoantibody-mediated arthritis in mice via regulation of p16INK4a and p21(WAF1/Cip1) expression. Arthritis Rheum. 10: 3365-76); and Brand et al. 2007 (supra). […]

[2] = tested on: Balb/c N mice, IMQ induced psoriasis; experiment: Imiquimod (IMQ) psoriasis-like mouse model; assay type: in vivo; settings: 10 mg/kg i.p., 3 days before and at D0
Excerpt: The pro-inflammatory function of IL17C in the skin was examined in a non-infectious cutaneous inflammation mouse model of psoriasis where topical TLR7-TLR8 agonist Imiquimod induces psoriatic skin lesions characterized by epidermal proliferation and leukocyte infiltration, which are dependent on pathogenic TH17 cytokines (Van der Fits et al., J of Immunol. 2009 May 1; 182(9):5836-45.). The role of IL17C in this particular model was recently documented (Ramirez-Carrozzi et al, Nat Immunol. 2011 12(12):1159-66) and a convincing genetic proof of the IL17C role in the disease model was provided with IL17C^−/− mice. […]
In order to induce a psoriatic-like response, a daily topical dose of 62.5 mg of Imiquimod cream on the shaved back and the right ear for 5 consecutive days (D0-D4), translating in a daily dose of 3.13 mg of the active compound. The control group was constituted with mice receiving the same quantity of Vaseline cream. […] Body weight was daily recorded. At necropsy and at the days indicated, the ears and the back skin thicknesses were measured using a micrometer (Mitutoyo). […] Spleen and thymus weight was measured.
Mice were randomly divided into equal groups (n=10). […] The control group was constituted with control mice receiving the same quantity of Vaseline. […]

B1: MOR12743: anti-mouse IL17C HuCAL antibody; CDRs SEQ ID NO: 31-36, VL 37, VH 38; human/mouse chimeric IgG2a (antibody, V domains shown)
VH: QVQLVQSGAEVKKPGASVKVSCKASGYTFTSNFIHWVRQAPGQGLEWMGWISPYNGDTNYAQKFQGRVTMTRDTSISTAYMELSRLRSEDTAVYYCARESVYYGSDYGYNGMDIWGQGTLVTVSS
VL: DIELTQPPSVSVSPGQTASITCSGDNLGEEYVSWYQQKPGQAPVLVIYDDTKRPSGIPERFSGSNSGNTATLTISGTQAEDEADYYCASWDLWSVEVFGGGTKLTVLGQ
modifications: mouse IgG2a constant regions; VH; VL
In the case of B1, the “inhibition of inflammation / disease progression (clinical score)” value [1] is reported as “significant inhibition” and the “effect on epidermal thickness induced by IMQ in the mouse ear skin (histology)” value [2] is reported as “significant”.

— US10815297B2, “Antagonists of IL17C for the treatment of inflammatory disorders” (MorphoSys AG, priority 2011, dated 2020)
